Results: publication PMC11931385, “Structural and functional analysis of cancer-associated missense variants in the retinoblastoma protein pocket domain” (The Journal of Biological Chemistry, 2025)
No end group written: not given here. TMR = tetramethyl rhodamine dye

T1: Rb^P R741S (human, UniProt P06400 380-788, R741S)
T1 construct: also called variant 70
T1 sequence (looked up): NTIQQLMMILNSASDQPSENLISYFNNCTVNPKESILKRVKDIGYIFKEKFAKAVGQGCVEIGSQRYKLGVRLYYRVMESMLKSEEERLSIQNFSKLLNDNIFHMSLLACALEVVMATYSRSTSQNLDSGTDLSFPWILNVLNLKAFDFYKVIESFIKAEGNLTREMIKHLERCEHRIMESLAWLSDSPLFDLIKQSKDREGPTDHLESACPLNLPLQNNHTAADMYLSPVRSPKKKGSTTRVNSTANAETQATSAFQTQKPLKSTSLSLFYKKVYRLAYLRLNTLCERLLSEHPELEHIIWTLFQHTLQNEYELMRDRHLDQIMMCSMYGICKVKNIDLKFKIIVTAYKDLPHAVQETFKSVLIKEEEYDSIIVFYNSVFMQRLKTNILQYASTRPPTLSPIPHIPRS

T2: Rb^P E492Q (human, UniProt P06400 380-788, E492Q)
T2 construct: also called variant 18
T2 sequence (looked up): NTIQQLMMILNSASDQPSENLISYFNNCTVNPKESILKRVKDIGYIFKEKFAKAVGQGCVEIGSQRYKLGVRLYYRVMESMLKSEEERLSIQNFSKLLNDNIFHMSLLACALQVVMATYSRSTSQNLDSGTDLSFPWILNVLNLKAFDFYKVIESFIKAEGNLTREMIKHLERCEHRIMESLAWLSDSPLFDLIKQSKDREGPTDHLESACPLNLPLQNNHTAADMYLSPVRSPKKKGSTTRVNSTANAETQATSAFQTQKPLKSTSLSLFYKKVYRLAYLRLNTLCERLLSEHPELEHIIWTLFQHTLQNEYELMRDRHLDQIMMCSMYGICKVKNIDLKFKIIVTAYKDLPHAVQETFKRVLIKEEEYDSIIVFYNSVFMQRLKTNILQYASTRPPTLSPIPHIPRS

T3: Rb^P T620M (human, UniProt P06400 380-788, T620M)
T3 construct: also called variant 40
T3 sequence (looked up): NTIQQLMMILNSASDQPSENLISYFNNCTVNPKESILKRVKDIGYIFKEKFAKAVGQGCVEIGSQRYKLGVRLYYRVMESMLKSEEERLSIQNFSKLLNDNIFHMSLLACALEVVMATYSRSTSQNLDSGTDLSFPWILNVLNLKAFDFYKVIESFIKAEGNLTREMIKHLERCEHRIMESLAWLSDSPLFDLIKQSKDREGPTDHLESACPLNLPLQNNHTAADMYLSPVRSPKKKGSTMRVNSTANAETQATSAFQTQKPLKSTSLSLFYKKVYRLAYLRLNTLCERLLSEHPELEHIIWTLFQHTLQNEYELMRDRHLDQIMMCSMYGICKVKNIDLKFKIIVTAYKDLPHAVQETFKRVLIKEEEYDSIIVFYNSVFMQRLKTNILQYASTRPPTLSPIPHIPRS

T4: Rb^P T687I (human, UniProt P06400 380-788, T687I)
T4 construct: also called variant 59
T4 sequence (looked up): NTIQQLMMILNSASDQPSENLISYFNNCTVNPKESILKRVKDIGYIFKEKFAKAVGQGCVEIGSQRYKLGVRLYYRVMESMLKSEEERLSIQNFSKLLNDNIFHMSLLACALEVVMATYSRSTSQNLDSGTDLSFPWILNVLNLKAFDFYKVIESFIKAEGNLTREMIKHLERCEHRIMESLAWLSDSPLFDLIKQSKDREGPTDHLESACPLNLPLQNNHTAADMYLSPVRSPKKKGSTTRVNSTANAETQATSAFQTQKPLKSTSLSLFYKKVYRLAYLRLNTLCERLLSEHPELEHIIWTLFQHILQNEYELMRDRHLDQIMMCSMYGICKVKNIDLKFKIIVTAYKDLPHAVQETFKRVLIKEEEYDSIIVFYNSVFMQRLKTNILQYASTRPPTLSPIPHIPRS

T5: Rb^P S443L (human, UniProt P06400 380-788, S443L)
T5 construct: also called variant 2
T5 sequence (looked up): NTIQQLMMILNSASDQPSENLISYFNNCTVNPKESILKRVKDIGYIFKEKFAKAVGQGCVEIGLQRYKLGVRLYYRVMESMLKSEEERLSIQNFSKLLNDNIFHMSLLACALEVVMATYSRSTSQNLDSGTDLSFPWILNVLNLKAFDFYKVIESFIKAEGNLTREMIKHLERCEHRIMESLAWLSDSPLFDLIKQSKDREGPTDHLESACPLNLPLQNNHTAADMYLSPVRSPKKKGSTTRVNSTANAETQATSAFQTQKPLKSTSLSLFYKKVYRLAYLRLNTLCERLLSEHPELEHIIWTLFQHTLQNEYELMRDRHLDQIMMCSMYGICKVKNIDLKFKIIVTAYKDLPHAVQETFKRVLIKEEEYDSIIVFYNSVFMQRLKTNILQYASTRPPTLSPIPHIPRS


Assays:
Test in all cases: fluorescence polarisation; 37 °C, after the 25 °C reading ramped over 7 min to 37 °C and 2 min incubation; unlabeled Rb^P against 1.5 nM TMR-E2F1^TD or 7.5 nM TMR-E7^LxCxE; 25 mM Tris pH 8.0, 200 mM NaCl, 1 mM DTT, 0.1% Tween-20; apparent Kd
Conditions in all cases: both partners purified
Rb^P R741S = target: T1, Rb^P R741S
Rb^P E492Q = target: T2, Rb^P E492Q
Rb^P T620M = target: T3, Rb^P T620M
Rb^P T687I = target: T4, Rb^P T687I
Rb^P S443L = target: T5, Rb^P S443L

Binder	Kd (Rb^P R741S) [nM]	Kd (Rb^P E492Q) [nM]	Kd (Rb^P T620M) [nM]	Kd (Rb^P T687I) [nM]	Kd (Rb^P S443L) [nM]
{TMR}-GEGIRDLFDCDFGDLTPLD (also called E2F^TD; source: synthetic peptide, bought: GenScript) [TMR-E2F1^TD, peptide of the E2F1 transactivation domain]	84	73	59	40	55
DLYCYEQLN (also: TMR label, position not given here, source: synthetic peptide, bought: GenScript) [TMR-E7^LxCxE, LxCxE peptide of the E7 oncoprotein from HPV]	46	52	15	29	21
